Patent publication US20240000838A1 (SIMCERE INNOVATION, published 2024)

T1: Human CD5 Protein, HisTag (AcroBiosystems, Cat #CD5-H52H5) (human, UniProt P06127 25-372)
T1 construct: Bought staining reagent, detected with His-APC antibody; also called CD5 antigen; APC labeled CD5 antigen; not shown: His tag
T1 sequence (looked up): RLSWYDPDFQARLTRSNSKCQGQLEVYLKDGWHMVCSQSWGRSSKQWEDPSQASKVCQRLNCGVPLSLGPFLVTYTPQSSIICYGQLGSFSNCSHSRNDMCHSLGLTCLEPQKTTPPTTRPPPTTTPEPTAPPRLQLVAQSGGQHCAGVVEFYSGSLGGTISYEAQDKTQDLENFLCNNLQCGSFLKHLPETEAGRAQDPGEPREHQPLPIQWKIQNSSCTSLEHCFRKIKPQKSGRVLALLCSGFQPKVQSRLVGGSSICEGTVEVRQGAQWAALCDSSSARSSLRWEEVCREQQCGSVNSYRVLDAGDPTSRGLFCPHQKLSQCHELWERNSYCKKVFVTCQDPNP

B1: CD5 CAR CAR5-2, construct S006 (other)
chain: NIQLVQSGPELKKPGETVKISCKASGYTFTNYGMNWVKQAPGKGLRWMGWINTHTGEPTYADDFKGRFAFSLETSASTAYLQINNLKNEDTATYFCTRRGYDWYFDVWGAGTTVTVSSGGGGSGGGGSGGGGSDIKMTQSPSSMYASLGERVTITCKASQDINSYLSWFHHKPGKSPKTLIYRANRLVDGVPSRFSGSGSGQDYSLTISSLDYEDMGIYYCQQYDESPWTFGGGTKLEMKASTTTPAPRPPTPAPTIASQPLSLRPEACRPAAGGAVHTRGLDFACDIYIWAPLAGTCGVLLLSLVITLYCKRGRKKLLYIFKQPFMRPVQTTQEEDGCSCRFPEEEEGGCELRVKFSRSADAPAYKQGQNQLYNELNLGRREEYDVLDKRRGRDPEMGGKPRRKNPQEGLYNELQKDKMAEAYSEIGMKGERRRGKGHDGLYQGLSTATKDTYDALHMQALPPR
notes: Chimeric antigen receptor on T cells
B2: CD5 CAR CAR5-6, construct S010 (other)
chain: EIQLVQSGGGLVKPGGSVRISCAASGYTFTNYGMNWVRQAPGKGLEWMGWINTHTGEPTYADSFKGRFTFSLDDSKNTAYLQINSLRAEDTAVYFCTRRGYDWYFDVWGQGTTVTVSSGGGGSGGGGSGGGGSDIQMTQSPSSLSASVGDRVTITCRASQDINSYLSWFQQKPGKAPKTLIYRANRLESGVPSRFSGSGSGTDYTLTISSLQYEDFGIYYCQQYDESPWTFGGGTKLEIKASTTTPAPRPPTPAPTIASQPLSLRPEACRPAAGGAVHTRGLDFACDIYIWAPLAGTCGVLLLSLVITLYCKRGRKKLLYIFKQPFMRPVQTTQEEDGCSCRFPEEEEGGCELRVKFSRSADAPAYKQGQNQLYNELNLGRREEYDVLDKRRGRDPEMGGKPRRKNPQEGLYNELQKDKMAEAYSEIGMKGERRRGKGHDGLYQGLSTATKDTYDALHMQALPPR
notes: as for B1

Target: T1, Human CD5 Protein, HisTag …
Experiment: flow cytometry; CAR-T cells stained with soluble human CD5-His and His-APC antibody
Procedure: CD3 and CD5 are stained with a CD3-FITC antibody (BD Biosciences, #555339) and a CD5-APC antibody (BD Biosciences, #555355) for 30 minutes at R.T. in the dark. CAR5 surface expression is detected by staining with Human CD5 Protein, HisTag (AcroBiosystems, Cat #CD5-H52H5) for 1 hour at R.T., washed and then incubated with His-APC antibody (R&D Systems, IC050A) for 30 minutes at R.T. in the dark. CAR33 expression is stained with CD33 human protein-PE (Sino Biological, 12238-HCCH_P) for 1 hour at R.T. All the staining is performed at 1:10 dilutions. DAPI (Thermo Scientific, Cat #BV-421, 1:5000) is used to stain dead cells before running by the Attune NxT Flow Cytometer (Thermo Fisher Scientific). Data is further analyzed by either using Attune NxT flow software or FlowJo software.

Binder	% of T cells stained with CD5 antigen (CAR5 expression) [%]
B1	> 80
B2	> 80
